Assay results as given in patent US20160280792A1 (Kyowa Kirin, published 2016).

How the values were obtained:
[1] = target: T1, IL-3Rα/GM-CSFRα chimeric protein, A domain of IL-3Rα replaced by that of GM-CSFRα, on HEK293T cells (human, UniProt P15509 23-114); experiment: flow cytometry, labelled antibody at 1 µg/ml, HEK293T cells expressing the construct
T1 construct: domain: A domain; The KpnI site (GGTACC) at the junction encodes an extra Gly-Thr; also called A domain substitution
T1 sequence: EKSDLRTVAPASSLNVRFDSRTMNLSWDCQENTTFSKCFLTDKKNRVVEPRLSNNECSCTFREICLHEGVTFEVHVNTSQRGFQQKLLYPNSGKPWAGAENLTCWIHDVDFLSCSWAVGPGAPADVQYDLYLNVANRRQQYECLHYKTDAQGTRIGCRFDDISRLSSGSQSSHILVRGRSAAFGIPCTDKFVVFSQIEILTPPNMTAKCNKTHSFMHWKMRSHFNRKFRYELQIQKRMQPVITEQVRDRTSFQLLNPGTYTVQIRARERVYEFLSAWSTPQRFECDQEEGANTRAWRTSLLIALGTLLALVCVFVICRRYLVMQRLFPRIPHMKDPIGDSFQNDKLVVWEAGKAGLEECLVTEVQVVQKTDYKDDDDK
Experimental: HEK293T cell (ATCC CRL 1268) was used for the preparation of the IL-3Rα/GM-CSFRα chimeric protein expression cell. Using 293Fectin (Invitrogen), the plasmid DNA obtained in the above was introduced as an expression vector into the HEK293T. The HEK293T to which the expression vector was introduced was cultured using a shaker under conditions of 5% CO₂ and 37° C. after 2 days of the introduction, the […] was used for in the flow cytometry analysis.
From 100,000 to 1,000,000 cells of the chimeric protein expression cell were allowed to react for 30 minutes on ice with at a concentration of 1 μg/ml with an AlexaFlour488-labeled human antibody or a commercially available FITC-labeled anti-IL-3Rα mouse antibody (7G3 or 9F5: both from BD Biosciences, 6H6: Acris Antibodies, AC145: Milteny Biotech, 107D2.08: Dendritics). A staining medium (Dulbecco's PBS supplemented with 2% fetal bovine serum, 2 mM EDTA and 0.05% NaN₃) was used for the dilution of antibodies and cells. Next, the cells reacted with antibodies were washed three times with the staining medium and whether the labeled antibody bound to the cell was confirmed by flow cytometry.

[2] = target: T2, soluble form of human IL-3Rα protein (extracellular region with C-terminal FLAG tag) (human, UniProt P26951 19-305); experiment: SPR (Biacore 2000): antibody captured on anti-mouse antibody CM5 chip, soluble IL-3Rα as analyte, 1:1 Langmuir fit
T2 construct: Made in CHOras1 cells, purified on anti-FLAG gel; also called soluble form of IL-3Rα protein; soluble form of human IL-3Rα extracellular region
T2 sequence: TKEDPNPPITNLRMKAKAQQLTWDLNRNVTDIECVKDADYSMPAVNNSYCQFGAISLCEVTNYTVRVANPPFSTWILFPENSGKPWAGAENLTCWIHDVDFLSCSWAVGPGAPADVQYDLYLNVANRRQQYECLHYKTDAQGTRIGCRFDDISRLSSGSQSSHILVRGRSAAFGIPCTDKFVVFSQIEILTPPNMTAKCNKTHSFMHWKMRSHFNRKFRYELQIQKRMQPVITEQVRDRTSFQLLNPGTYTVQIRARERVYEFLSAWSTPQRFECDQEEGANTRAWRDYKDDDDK
Experimental: Specifically, CM5 (research grade) was used for a sensor tip (each GE). Firstly, the CM5 tip was activated by applying an equivalent mixture of 400 mM EDC (N-ethyl-N′-(3-dimethylaminopropyl)carbodiimidehydrochloride) and 100 mM NHS (N-hydroxysuccinimide) to the CM5 tip. Next, an antibody to the human antibody attached to the Human Antibody Capture Kit (GE) (hereinafter, referred to as anti-human antibody antibody) was diluted with the solution attached to the kit and applied thereto, thereby immobilizing the required amount of the anti-human antibody antibody to the CM5 tip. Regarding the mouse antibody to be used as a control, an antibody to the mouse antibody attached to the Mouse Antibody Capture Kit (GE) (hereinafter, referred to as anti-mouse antibody antibody) was diluted with the solution attached to the kit and applied thereto, thereby immobilizing a necessary amount thereof to the CM5 tip. […]
In the analysis, Biaevaluation software (GE) was used and Biaevaluation Software Handbook was referred. Specifically, by carrying out simultaneous analysis of kinetics analysis, employing basically the 1:1 Langmuir binding reaction model and fitting, association rate constant (Ka) and dissociation rate constant (Kd) were calculated, and the value of dissociation constant KD was calculated by the calculation of Kd/Ka.

[3] = target: T3, IL-3Rα/GM-CSFRα chimeric protein, region 1 (55-DADYSMP-61) of IL-3Rα replaced by GM-CSFRα sequence, on … (human, UniProt P26951 19-378); experiment: flow cytometry, labelled antibody at 1 µg/ml, HEK293T cells expressing the construct
T3 construct: Built on IL-3RA-FLAG/pEGFP-N1; they are my translation of the primers; also called Region 1 (A)
T3 chain: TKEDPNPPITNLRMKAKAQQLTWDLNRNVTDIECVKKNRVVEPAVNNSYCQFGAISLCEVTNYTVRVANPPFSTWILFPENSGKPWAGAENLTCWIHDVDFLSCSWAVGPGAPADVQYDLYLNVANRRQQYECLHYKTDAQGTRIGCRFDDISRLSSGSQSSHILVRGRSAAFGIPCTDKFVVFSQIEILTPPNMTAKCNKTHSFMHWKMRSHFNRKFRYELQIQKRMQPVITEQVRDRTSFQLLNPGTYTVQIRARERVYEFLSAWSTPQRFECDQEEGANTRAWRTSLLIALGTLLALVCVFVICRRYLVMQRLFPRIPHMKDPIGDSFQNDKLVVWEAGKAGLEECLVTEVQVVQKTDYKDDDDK

B1: anti-human IL-3Rα mouse antibody 7G3 (antibody, V domains shown)
VH: EVQLQQSGPELVKPGASVKMSCKASGYTFTDYYMKWVKQSHGKSLEWIGDIIPSNGATFYNQKFKGKATLTVDRSSSTAYMHLNSLTSEDSAVYYCTRSHLLRASWFAYWGQGTLVTVSA
VL: DFVMTQSPSSLTVTAGEKVTMSCKSSQSLLNSGNQKNYLTWYLQKPGQPPKLLIYWASTRESGVPDRFTGSGSGTDFTLTISSVQAEDLAVYYCQNDYSYPYTFGGGTKLEIK
notes: Mouse antibody; the material used in flow cytometry was bought (BD Biosciences, FITC-labelled); Light chain start see note of m7; also called 7G3 (Mouse antibodies); FITC-labeled 7G3 (BD Biosciences)
In the case of B1, the binding result [1] is reported as “no binding (tested: 1 µg/ml)”, the Kd [2] is reported as 0.566 nM and the binding result [3] is reported as “no binding (tested: 1 µg/ml)”.
